Laboratory results taken from US11739132B2, “Separation moieties and methods of use thereof” (Werewolf Therapeutics, Inc., priority 2019, dated 2023).

System: MC38 tumor cells
Assay: MC38 tumor model, IFNα and IL-12 fusion proteins (Example 27C)
Type: in vivo, C57BL/6 mice
Conditions: ACP31 33-330 μg, ACP11 17.5-525 μg, ACP04 2 and 10 μg
Procedure: The MC38 cell line, a rapidly growing colon adenocarcinoma cell line that expresses MMP9 in vitro, was used. Using this tumor model, the ability of fusion proteins to affect tumor growth was examined.
Mice were anaesthetized with isoflurane for implant of cells to reduce the ulcerations. 308 CR female C57BL/6 mice were set up with 5×10^5 MC38 tumor cells in 0% Matrigel sc in flank. Cell Injection Volume was 0.1 mL/mouse. Mouse age at start date was 8 to 12 weeks. Pair matches were performed when tumors reach an average size of 100-150 mm^3 and begin treatment. Body weights were taken at initiation and then biweekly to the end. Caliper measurements were taken biweekly to the end. Any adverse reactions were to be reported immediately. […] Within a group with >20% weight loss, individuals hitting the individual body weight loss endpoint were euthanized. If the group treatment related body weight loss is recovered to within 10% of the original weights, dosing resumed at a lower dose or less frequent dosing schedule. Exceptions to non-treatment body weight % recovery were allowed on a case-by-case basis. […] Animals were monitored individually. […]
No compounds in salt form were used. […] The amount needed per week was calculated, aliquoted accordingly, and stored at −20 C. […]
For ACP11, ACP31, ACP131, the amount needed per week was calculated, aliquoted accordingly, and stored at −20 C. […]

B1: ACP04: human p40-murine p35-6xHis (protein)
chain: IWELKKDVYVVELDWYPDAPGEMVVLTCDTPEEDGITWTLDQSSEVLGSGKTLTIQVKEFGDAGQYTCHKGGEVLSHSLLLLHKKEDGIWSTDILKDQKEPKNKTFLRCEAKNYSGRFTCWWLTTISTDLTFSVKSSRGSSDPQGVTCGAATLSAERVRGDNKEYEYSVECQEDSACPAAEESLPIEVMVDAVHKLKYENYTSSFFIRDIIKPDPPKNLQLKPLKNSRQVEVSWEYPDTWSTPHSYFSLTFCVQVQGKSKREKKDRVFTDKTSATVICRKNASISVRAQDRYYSSSWSEWASVPCSGGGGSGGGGSGGGGSRVIPVSGPARCLSQSRNLLKTTDDMVKTAREKLKHYSCTAEDIDHEDITRDQTSTLKTCLPLELHKNESCLATRETSSTTRGSCLPPQKTSLMMTLCLGSIYEDLKMYQTEFQAINAALQNHNHQQIILDKGMLVAIDELMQSLNHNGETLRQKPPVGEADPYRVKMKLCILLHAFSTRVVTINRVMGYLSSAHHHHHH
- Tumor volume over time: tumor volume decreasing over time in a dose-dependent manner
